Source: patent publication US20140242111A1

B1: RGS-His-tagged SCI-57 (single-chain insulin analog secreted by L. lactis NZ9000(pNZPnisA:uspSCI-57his), usp45 signal peptide cleaved) (ligand)
chain: FVNQHLCGSDLVEALYLVCGERGFFYTDPTGGGPRRGIVEQCCHSICSLYQLENYCNRGSHHHHHH
B2: SCI-57 without RGS-His tag (single-chain insulin analog secreted by L. lactis NZ9000(pNZPnisA:uspSCI-57)) (ligand)
chain: FVNQHLCGSDLVEALYLVCGERGFFYTDPTGGGPRRGIVEQCCHSICSLYQLENYCN

Target: insulin receptor on differentiated 3T3-L1 adipocytes (mouse (murine 3T3-L1 cell line)) (UniProt P15208)
Sequence (P15208 28-1372): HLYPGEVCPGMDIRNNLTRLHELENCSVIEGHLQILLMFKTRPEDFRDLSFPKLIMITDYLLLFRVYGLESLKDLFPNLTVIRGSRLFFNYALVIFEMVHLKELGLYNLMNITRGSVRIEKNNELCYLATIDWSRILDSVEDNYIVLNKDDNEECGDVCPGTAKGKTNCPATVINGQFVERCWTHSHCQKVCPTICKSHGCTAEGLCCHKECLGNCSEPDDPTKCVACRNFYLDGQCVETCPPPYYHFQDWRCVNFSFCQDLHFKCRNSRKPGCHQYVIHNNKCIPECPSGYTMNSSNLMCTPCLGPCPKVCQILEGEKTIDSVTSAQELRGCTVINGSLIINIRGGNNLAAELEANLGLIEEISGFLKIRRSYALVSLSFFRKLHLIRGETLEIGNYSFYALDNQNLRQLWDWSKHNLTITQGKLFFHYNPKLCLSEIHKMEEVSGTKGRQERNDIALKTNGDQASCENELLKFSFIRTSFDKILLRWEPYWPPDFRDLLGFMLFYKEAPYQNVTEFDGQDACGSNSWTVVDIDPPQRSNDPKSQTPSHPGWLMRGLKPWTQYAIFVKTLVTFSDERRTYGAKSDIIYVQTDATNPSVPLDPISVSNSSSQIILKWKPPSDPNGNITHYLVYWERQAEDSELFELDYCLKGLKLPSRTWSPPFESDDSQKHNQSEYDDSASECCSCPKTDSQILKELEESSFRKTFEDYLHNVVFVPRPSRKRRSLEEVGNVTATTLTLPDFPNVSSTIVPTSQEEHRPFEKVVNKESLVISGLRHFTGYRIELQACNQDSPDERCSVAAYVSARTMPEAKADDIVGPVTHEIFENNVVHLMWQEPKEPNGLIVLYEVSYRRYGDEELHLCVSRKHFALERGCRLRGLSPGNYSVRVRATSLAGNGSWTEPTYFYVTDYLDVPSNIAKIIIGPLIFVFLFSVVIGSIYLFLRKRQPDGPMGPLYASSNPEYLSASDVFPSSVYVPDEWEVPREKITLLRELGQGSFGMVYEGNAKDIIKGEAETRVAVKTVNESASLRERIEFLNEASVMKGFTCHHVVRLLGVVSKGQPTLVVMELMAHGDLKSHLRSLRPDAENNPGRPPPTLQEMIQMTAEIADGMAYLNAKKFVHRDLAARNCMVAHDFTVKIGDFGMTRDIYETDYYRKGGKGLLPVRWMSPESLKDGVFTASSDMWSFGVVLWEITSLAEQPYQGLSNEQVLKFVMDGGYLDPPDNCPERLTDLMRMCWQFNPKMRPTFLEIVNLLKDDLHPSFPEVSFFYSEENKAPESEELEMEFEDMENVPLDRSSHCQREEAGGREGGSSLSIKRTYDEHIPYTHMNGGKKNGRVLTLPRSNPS
Assay: cell-based or functional assay

Binder	Insulin activity (with RGS-His tag), p-Akt on 3T3-L1 adipocytes; culture: M17 with NaOH addition at 0.5 hr (nM commercial insulin (equivalent))	Insulin activity (with RGS-His tag), p-Akt on 3T3-L1 adipocytes; culture: M17 with NaOH addition at 1.5 hr (nM commercial insulin (equivalent))	Insulin activity (with RGS-His tag), p-Akt on 3T3-L1 adipocytes; culture: M17 with NaOH addition at 2.5 hr (nM commercial insulin (equivalent))	Insulin activity (with RGS-His tag), p-Akt on 3T3-L1 adipocytes; culture: M17 with NaOH addition every hour (nM commercial insulin (equivalent))	p-Akt(Ser473) Western blot on differentiated 3T3-L1 adipocytes, quantified from three independent experiments; supernatant of induced culture treated with NaOH (scale: nM commercial insulin)	Insulin activity (no tag), p-Akt on 3T3-L1 adipocytes; culture: M17 only (nM commercial insulin (equivalent))	Insulin activity (no tag), p-Akt on 3T3-L1 adipocytes; culture: M17 with 50 mM sodium phosphates (nM commercial insulin (equivalent))	Insulin activity (no tag), p-Akt on 3T3-L1 adipocytes; culture: M17 with NaOH addition at 1.5 hr (nM commercial insulin (equivalent))
B1	1	1	< 1	1	1			
B2						< 1	< 1	> 1
